In PMC6957489:

Columns and labels:
[1] = molecular target: t-SNARE heterodimer with syntaxin-1A labeled at position 203 with cy5 (N-N FRET pair) (rat) (UniProt P32851); assay: FRET or BRET; single-molecule FRET (prism-based TIRF, 100-ms resolution) between cy3-syb2 in v-SNARE 13 nm nanodiscs (ND1) and cy5-syntaxin-1A in t-SNARE nanodiscs; NDs (5 µM) incubated at room temperature 30 min, diluted to 10 pM; no syt1; with EGTA or 500 µM free Ca2+ (Ca2+ had no effect); 100 mM KCl, 25 mM HEPES pH 7.4
[2] = molecular target: t-SNARE heterodimer with syntaxin-1A labeled at position 241 with cy5 (C-C FRET pair) (rat) (UniProt P32851); assay: FRET or BRET; single-molecule FRET as above, with full-length syt1 co-reconstituted in the v-SNARE nanodisc; values in the absence of Ca2+ (EGTA); subsequent Ca2+ (500 µM free) had only subtle effects, with an increase in the highest C-C FRET peak
[3] = molecular target: t-SNARE heterodimer with syntaxin-1A labeled at position 241 with cy5 (C-C FRET pair) (rat) (UniProt P32851); assay: FRET or BRET; single-molecule FRET (prism-based TIRF, 100-ms resolution) between cy3-syb2 in v-SNARE 13 nm nanodiscs (ND1) and cy5-syntaxin-1A in t-SNARE nanodiscs; NDs (5 µM) incubated at room temperature 30 min, diluted to 10 pM; no syt1; with EGTA or 500 µM free Ca2+ (Ca2+ had no effect); 100 mM KCl, 25 mM HEPES pH 7.4

| FRET ratio (R), peak of the distribution, N-N pair [1] | FRET ratio (R), C-C pair, first of three states (with apo-syt1) [2] | FRET ratio (R), C-C pair, second of three states (with apo-syt1) [2] | FRET ratio (R), C-C pair, third of three states (with apo-syt1) [2] | FRET ratio (R), peak of the distribution, C-C pair [3] | Substance |
| --- | --- | --- | --- | --- | --- |
| 0.7 |  |  |  |  | syb2 labeled at position 33 with cy3 (N-N FRET pair) (from UniProt P63045 1-116) (natural protein) |
|  | 0.2 | 0.5 | 0.7 | 0.2 | syb2 labeled at position 72 with cy3 (C-C FRET pair) (from UniProt P63045 1-116) (natural protein) |
